One assay addresses T1, Soluble GPVI-Fc (human, UniProt Q9HCN6 21-269).
T1 construct: also called soluble human GPVI
T1 chain: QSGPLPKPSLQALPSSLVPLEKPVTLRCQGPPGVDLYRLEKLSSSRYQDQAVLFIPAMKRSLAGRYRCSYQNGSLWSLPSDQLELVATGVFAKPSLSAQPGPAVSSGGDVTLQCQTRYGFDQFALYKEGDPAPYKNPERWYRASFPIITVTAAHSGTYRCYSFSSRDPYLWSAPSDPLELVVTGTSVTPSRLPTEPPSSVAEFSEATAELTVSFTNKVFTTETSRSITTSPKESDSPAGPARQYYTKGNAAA
In words: SPR, BIAcore 2000, GPVI-Fc immobilised, Fab in flow, PBS pH 7.4. On the procedure:
Soluble GPVI-Fc (produced as described in Example 2) was immobilized in acetate buffer 10 mM pH 6 at a dose ranging from 960 to 1071 RU (corresponding about 6.4 to 7.15 fmol/mm²) onto a Carboxy-Methyl Dextran CMS sensor chip using the amine coupling method (Wizard procedure). The protein is then passed over the immobilized GPVI-Fc in PBS pH 7.4 (10 mM phosphate, 138 mM NaCl, 2.7 mM KCl, pH 7.42 at 25.4° C.) at a flow rate of 20 μL/min at 25° C. Kinetic constants (KA, KD, kₒₙ, koff) and affinity are determined using BIAevaluation version 3.0 software, by fitting data to binding model. PBS pH 7.4 is the running buffer.
A general note: Surface plasmon resonance follows binding to a sensor surface in real time, without labels.

The next assay concerns the target T2, murine GPVI (mouse, UniProt P0C191 22-265, limits assumed).
T2 construct: also called mouse GPVI
T2 sequence (looked up): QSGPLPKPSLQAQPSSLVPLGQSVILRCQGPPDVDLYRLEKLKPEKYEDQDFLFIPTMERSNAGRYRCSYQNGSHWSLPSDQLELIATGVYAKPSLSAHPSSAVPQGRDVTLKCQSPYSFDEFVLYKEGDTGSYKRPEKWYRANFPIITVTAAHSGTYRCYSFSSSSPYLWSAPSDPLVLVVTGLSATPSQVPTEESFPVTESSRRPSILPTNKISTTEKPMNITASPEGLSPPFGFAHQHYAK
Briefly: not described.

The target of assay [1] is T3, human Glycoprotein VI (GPVI) on platelets (human, UniProt Q9HCN6 21-339).
T3 chain: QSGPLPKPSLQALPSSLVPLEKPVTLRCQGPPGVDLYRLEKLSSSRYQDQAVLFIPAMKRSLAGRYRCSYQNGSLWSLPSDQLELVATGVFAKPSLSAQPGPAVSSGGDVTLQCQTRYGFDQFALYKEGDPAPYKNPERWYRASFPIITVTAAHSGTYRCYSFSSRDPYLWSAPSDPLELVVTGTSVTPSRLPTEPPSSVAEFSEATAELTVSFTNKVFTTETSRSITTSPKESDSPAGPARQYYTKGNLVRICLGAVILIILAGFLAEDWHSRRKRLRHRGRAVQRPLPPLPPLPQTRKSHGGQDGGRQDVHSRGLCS
In words: cell-based or functional assay.

B1: ACT006 antibody (humanized Fab fragment) (Fab, V domains shown)
VH: QVQLVQSGAEVKKPGASVKVSCKASGYTFTSYNMHWVRQAPGQGLEWMGGIYPGNGDTSYNQKFQGRVTMTRDTSTSTVYMELSSLRSEDTAVYYCARGTVVGDWYFDVWGQGTLVTVSS
VL: DIQMTQSPSSLSASVGDRVTITCSASQSLENSNGNTYLNWYQQKPGKAPKLLIYRVSNRFSGVPSRFSGSGSGTDFTLTISSLQPEDFATYYCLQLTHVPWTFGQGTKVEIKR
As usually defined, the Kd is the free concentration of one partner at which half of the binding sites on the other are occupied at equilibrium, for simple one-to-one binding. Higher therefore signals weaker binding. Broadly, the koff is the rate constant with which the complex falls apart. A lower koff goes with slow dissociation. As usually defined, the kon is a measure of how fast the partners come together. Lower therefore signals slow association. For the molecule B1, in the assay with Soluble GPVI-Fc, the Ka was determined as 1.4e+08 M⁻¹, binding was put at a Kd of 7.3 nM, the koff worked out at 0.000476 s⁻¹ and the kon amounted to 66500 M⁻¹ s⁻¹.

B2: ACT017 antibody (humanized Fab fragment) (Fab, V domains shown)
VH: QVQLVQSGAEVKKPGASVKVSCKASGYTFTSYNMHWVRQAPGQGLEWMGGIYPGNGDTSYNQKFQGRVTMTRDTSTSTVYMELSSLRSEDTAVYYCARGTVVGDWYFDVWGQGTLVTVSS
VL: DIQMTQSPSSLSASVGDRVTITCRSSQSLENSNGNTYLNWYQQKPGKAPKLLIYRVSNRFSGVPSRFSGSGSGTDFTFTISSLQPEDIATYYCLQLTHVPWTFGQGTKVEITR
notes: Coupled to Alexa488 for the flow cytometry assay; also called ACT17; humanized Fab ACT017
Take B2: the binding result with murine GPVI is listed as “no binding”. Also, in assay [1], the “mean IC50, intensity of collagen-induced platelet aggregation” value amounted to 3.2 µg/mL and the “mean IC50, velocity of collagen-induced platelet aggregation” value is 2 µg/mL. In addition, in the assay with Soluble GPVI-Fc, the Ka was 2.57e+08 M⁻¹, binding was put at a Kd of 4.1 nM, the koff came out at 0.000232 s⁻¹ and the kon amounted to 59700 M⁻¹ s⁻¹.

Values taken from US20180236071A1 (ACTICOR BIOTECH, published 2018).
